Results from patent US20230365648A1.

Assays:
Assay in all cases: BLI (Octet)
[1] = target: Rat CD47 (rat) (UniProt P97829)
[2] = target: Human CD47 (human) (UniProt Q08722)
[3] = target: Cyno CD47 (Cyno monkey)

Sequence of Human CD47 (human) (Q08722 19-139): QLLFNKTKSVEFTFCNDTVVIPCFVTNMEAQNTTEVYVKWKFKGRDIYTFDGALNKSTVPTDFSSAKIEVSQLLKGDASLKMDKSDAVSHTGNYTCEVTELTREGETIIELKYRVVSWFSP
Sequence of Rat CD47 (rat) (P97829 19-140): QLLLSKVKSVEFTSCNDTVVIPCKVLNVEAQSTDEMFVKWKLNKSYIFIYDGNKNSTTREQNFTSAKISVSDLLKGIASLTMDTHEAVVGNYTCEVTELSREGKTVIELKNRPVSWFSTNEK

Kd [1]: 1.16 nM
Kd [2]: 0.216 nM
Kd [3]: 0.289 nM
Substance: Anti-human CD47 (clone MIAP410)
